Assay results published in patent publication US20120093811A1 (published 2012).

T1: Source 2 VEGF-D, purified recombinant human VEGF-D monomer (R&D Systems, Catalog Number 622-VD/CF) (human, UniProt O43915 93-201)
T1 construct: Bought protein; Whole entry named; also called Source 2 VEGF-D Monomer
T1 sequence: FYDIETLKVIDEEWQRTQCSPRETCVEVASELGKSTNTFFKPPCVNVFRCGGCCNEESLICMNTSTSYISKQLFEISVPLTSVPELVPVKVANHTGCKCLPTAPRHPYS

T2: Source 1 VEGF-D, mature dimeric recombinant human VEGF-D (CSIRO) (human, UniProt O43915 89-205)
T2 sequence: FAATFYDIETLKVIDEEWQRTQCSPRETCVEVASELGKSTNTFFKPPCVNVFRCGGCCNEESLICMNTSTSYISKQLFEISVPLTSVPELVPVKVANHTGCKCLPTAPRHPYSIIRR


Columns and labels:
[1] = target: T1, Source 2 VEGF-D, purified recombinant …; assay: SPR, KD against that of Ig-1A
[2] = target: T1, Source 2 VEGF-D, purified recombinant …; assay: SPR, IgG captured by anti-human IgG (Fc), Source 2 VEGF-D monomer as analyte
[3] = target: T2, Source 1 VEGF-D, mature dimeric …; assay: cell-based or functional assay
[4] = target: T1, Source 2 VEGF-D, purified recombinant …; assay: cell-based or functional assay
[5] = target: T2, Source 1 VEGF-D, mature dimeric …; assay: SPR Protocol B: VEGF-D dimer amine-coupled, IgG as analyte
Procedure: (§1) Protocol B: In the second assay format, Protocol B, the orientation of the IgGs and the VEGF-D antigen was reversed relative to Protocol A. The Source 1 VEGF-D dimer was immobilized directly on the chip surface by amine coupling and the murine anti-VEGF-D monoclonal antibody, Ig-1A or IgG variants flowed over this surface as analytes at concentrations of 4 nM, 1.33 nM, and 0.44 nM. This protocol allowed avidity effects to be controlled by reducing the density of dimeric VEGF-D immobilized on the chip and in effect reduce the bivalent binding properties of the system being analyzed.
(§2) All four flow cells on a CM5 chip were activated for 7 min at 25° C. using a mixture of NHS.EDC. Flow cell one was used as an unmodified (activated and blocked) reference against flow cells 2-4. Source 1 VEGF-D dimer was diluted to 1-3 μg/ml into 10 mM sodium acetate, pH 4, and injected over three surfaces for different lengths of time to achieve low ligand densities of 10, 15 and 20 RU to minimize avidity effects of the IgG. All surfaces were blocked for 7 min with ethanolamine (1M, pH 8.2) and pre-conditioned using five 10 s injections of 100 mM H₃PO₄; 1M NaCl. Immobilization steps were carried out at a flow rate of 30 μl/min using HBS-N running buffer.
(§3) All IgG binding experiments were performed at 25° C. using HBS-EP+ running buffer. Analytes (murine reference anti-VEGF-D monoclonal antibody and humanized variants) were injected for 200 s at a flow rate of 70 μl/min and dissociation monitored for 250 s. The antigen surfaces were regenerated with a 10 s pulse of 100 mM H₃PO₄; 1M NaCl. Analyte concentrations used for murine and humanized variants were 4 nM, 1.33 nM, and 0.44 nM. Data was processed using the reference surface and double referencing from blank injections. Binding constants for the IgG/antigen interactions were determined from the three antigen surfaces globally fitted to a 1:1 interaction model. Refractive index parameter was constant (RI=0).

[6] = target: T2, Source 1 VEGF-D, mature dimeric …; assay: SPR Protocol A, KD against that of Ig-1A
Procedure: (§4) Protocol A: The first assay format, Protocol A, used an assay system where IgGs were captured on a biosensor chip surface using an anti-human IgG (Fc) antibody and the Source 1 VEGF-D dimer run over the chip as the analyte in solution. This ensured that all IgG molecules were presented to the antigen in an active orientation.
(§5) The SPR protocol was slightly modified to compensate for the dimeric nature of the VEGF-D. Ig-1A or IgG variants were analyzed using an anti-human capture kit as described for Anti-human IgG (Fc) capture above, except that 1000 RU of the IgG or IgG variant was captured on the anti-human chip surface. […] The kinetics generated using this approach are accurate within the experimental parameters set. This standard assay protocol is best suited to studying 1:1 interactions and thus, may not be ideal for analyzing binding between the IgG variants and the VEGF-D dimer. In light of this, Protocol B was also used.

[7] = target: T2, Source 1 VEGF-D, mature dimeric …; assay: SPR Protocol A: IgG captured by anti-human Fc, VEGF-D dimer as analyte
Procedure: as §4, §5

[8] = target: T2, Source 1 VEGF-D, mature dimeric …; assay: SPR Protocol B, KD against that of Ig-1A
Procedure: as §1, §2, §3

Binder | Fold-improvement with respect to Ig-1A [1] | Kd [2] | koff [2] | rank in the VEGFR-3-Ba/F3 bioassay [3] | rank in the VEGFR-3-Ba/F3 bioassay [4] | kon [2] | Kd [5] | koff [5] | kon [5] | Fold-improvement with respect to Ig-1A [6] | Kd [7] | koff [7] | kon [7] | Fold-improvement with respect to Ig-1A [8]
humanized IgG antibody derived from clone F61 (antibody, V domains shown, IgG) VH: QVQLVQSGAEVKQPGASVKVSCKASGYTFTGYNMYWVRQAPGQGLEWMGYIDPYNGDTTYNQKFKGRVTMTTDTSTSTAYMKLRSLRSDDTAVYYCARTSYYGGMDYWGRGTLVTVAS VL: DIVMTQTPLSSPVTLGQPASISCRSSQSLVHSNGNTYLHWLQQRPGQPPRLLIYKVSNRFSGVPDRFSGSGAGTDFTLKISRVEAEDVGVYYCSQSTHVPRTFGQGTKLEIKR | 1.8 fold | 5000 pM | 0.00824 s⁻¹ | 5 rank | 8 rank |  |  |  |  |  |  |  |  | 
humanized IgG antibody derived from clone A63 (antibody, V domains shown, IgG) VH: QVQLVQSGAKVKQPGASVKASCKASGYTFTGYNMYWVRQAPGQGLEWMGYIDPYNGDTTYNQKFKGRVTMTTDTSTSTAYMELRSLRSDDTAVYYCARTSYYGGMDYWGRGTLVTVAS VL: DIVMTQTPLSSPVTLGQPASISCRSSQSLVHSNGNTYLHWLQQRPGQPPRLLIYKVSNRFSGVPDRFSGSGAGTDFTLKISRVEAEDVGVYYCSQSTHVPRTFGQGTKLEIKR | 1.3 fold | 7000 pM | 0.00677 s⁻¹ |  |  | 970000 M⁻¹ s⁻¹ |  |  |  |  |  |  |  | 
humanized IgG antibody derived from clone HH41 (antibody, V domains shown, IgG; also called HH41#1; HH41#2) VH: QVQLVQSGAEVKQPGASVKVSCKASGYTFTGYNMYWVRQAPGQGLEWMGYIDPYNGDTTYNQKFKGRVTMTTDTSTSTAYMKLRSLRSDDTAVYYCARTSYYGGMDYWGRGTLVTVAS VL: DIVMTQTPLSSPVTLGQPASISCRSSQSLVHGNGNTYLHWLQQRPGQPPRLLIYKVSNRFSGVPDRFSGSGAGTDFTLKISRVEAEDVGVYYCSQSTHVPRTFGQGTKLEIKR |  |  |  | 8 rank | 6 rank |  | 360 pM | 0.0017 s⁻¹ | 4.7e+06 M⁻¹ s⁻¹ | 1.9 fold | 364 pM | 0.00019 s⁻¹ | 530000 M⁻¹ s⁻¹ | 4.9 fold
humanized IgG antibody derived from clone HH69 (antibody, V domains shown, IgG) VH: QVQLVQSGAKVKQPGASVKASCKASGYTFTGYNMYWVRQAPGQGLEWMGYIDPYSGDTTYNQKFKGRVTMTTDTSTSTAYMELRSLRSDDTAVYYCARTSYYGGMDYWGRGTLVTVAS VL: DIVMTQTPLSGPVTLGQPASISCRSSQSLVHSNGNTYLHWLQQRPGQPPRLLIYKVSNRFSGVPDRFSGSGAGTDFTLKISRVEAEDVGVYYCSQSTHVPRTFGRGTKLEIKR |  |  |  | 3 rank | 3 rank |  | 330 pM | 0.001 s⁻¹ | 3e+06 M⁻¹ s⁻¹ | 3.5 fold | 201 pM | 7.7e-05 s⁻¹ | 390000 M⁻¹ s⁻¹ | 5.3 fold
humanized IgG antibody derived from clone AW61 (antibody, V domains shown, IgG) VH: QVQLVQSGAEVKQPGASVKVSCKASGYTFTGYNMYWVRQAPGQGLEWMGYIDPYNGDTTYNQKFKGRATMTTDTSTSTAYMKLRSLRSDDTAVYYCARTSYYGGMDYWGRGTLVTVAS VL: DIVMTQTPLSSPVTLGQPASISCRSSQSLVHSNGNTYLHWLQQRPGQPPRLLIYKVSNRFSGVPDRFSGSGAGTDFTLKISRVEAEDVGVYYCSQSTHVPRTFGQGTKLEIKR | 2.2 fold | 4100 pM | 0.00725 s⁻¹ | 6 rank | 4 rank |  |  |  |  |  |  |  |  | 
humanized IgG antibody derived from clone DI26 (antibody, V domains shown, IgG) VH: QVQLVQSGAKVKQPGASVKASCKASGYTFTGYNMYWVRQAPGQGLEWMGYIDPYSGDTTYNQKFKGRVTMTTDTSTSTAYMELRSLRSDDTAVYYCARTSYYGGMDYWGRGTLVTVAS VL: DIVMTQTPLSSPVTLGQPASISCRSSQSLVHSNGNTYLHWLQQRPGQPPRLLIYKVSNRFSGVPDRFSGSGAGTDFTLKISRVEAEDVGVYYCSQSTHVPRTFGQGTKLEIKR | 2.2 fold | 4100 pM | 0.0041 s⁻¹ | 2 rank | 2 rank | 1e+06 M⁻¹ s⁻¹ | 880 pM | 0.0012 s⁻¹ | 1.3e+06 M⁻¹ s⁻¹ | 1 fold | 699 pM | 0.00039 s⁻¹ | 560000 M⁻¹ s⁻¹ | 2 fold
humanized IgG antibody derived from clone HW78 (antibody, V domains shown, IgG) VH: QVQLVQSGAEVKQPGASVKVSCKARGYTFTGYNMYWVRQAPGQGLEWMGYIDPYNGDTTYNQKFKGRVTMTTDTSTGTAYMKLRSLRSDDTAVYYCARTSYYGGMDYWGRGTLVTVAS VL: DIVMTQTPLSSPVTLGQPASISCRSSQSLVHSNGNTYLHWLQQRPGQPPRLLIYKVSNRFSGVPDRFSGSGAGTDFTLKISRVEAEDVGVYYCSQSTHVPRTFGQGTKLEIKR |  |  |  | 4 rank | 7 rank |  | 320 pM | 0.0018 s⁻¹ | 5.4e+06 M⁻¹ s⁻¹ | 2 fold | 342 pM | ~0.00018 s⁻¹ | 510000 M⁻¹ s⁻¹ | 5.5 fold
